From the Immune Epitope Database (IEDB)
pKd: −log10 of the molar value.

Key:
[1] = target: HLA-B*58:01; assay: IEDB peptide-MHC binding, purified MHC/competitive/fluorescence; filed as Kd, often an IC50 or EC50 that approximates it; ≥ and ≤ were set here for values at or beyond the usual limits of such assays
[2] = target: HLA-A*01:01; assay: as above
[3] = target: HLA-A*02:01; assay: as above
[4] = target: HLA-B*15:09; assay: IEDB peptide-MHC binding, purified MHC/direct/fluorescence; filed as Kd, often an IC50 or EC50 that approximates it; ≥ and ≤ were set here for values at or beyond the usual limits of such assays
[5] = target: HLA-A*68:02; assay: IEDB peptide-MHC binding, purified MHC/competitive/fluorescence; filed as Kd, often an IC50 or EC50 that approximates it; ≥ and ≤ were set here for values at or beyond the usual limits of such assays; details: source organism: Giardia lamblia ATCC 50803
[6] = target: HLA-B*51:01; assay: as above
[7] = target: HLA-A*26:01; assay: as above
[8] = target: HLA-A*02:19; assay: as above
[9] = target: HLA-B*27:03; assay: as above
[10] = target: HLA-B*57:01; assay: as above
[11] = target: HLA-B*39:01; assay: as above
[12] = target: HLA-A*02:16; assay: as above
[13] = target: HLA-B*18:01; assay: as above
[14] = target: HLA-A*24:03; assay: as above
[15] = target: HLA-A*02:03; assay: as above
[16] = target: HLA-A*03:01; assay: as above
[17] = target: HLA-A*02:12; assay: as above
[18] = target: HLA-A*02:11; assay: as above
[19] = target: HLA-A*69:01; assay: as above; details: source organism: Giardia lamblia ATCC 50803
[20] = target: HLA-B*51:01; assay: IEDB peptide-MHC binding, purified MHC/direct/fluorescence; filed as Kd, often an IC50 or EC50 that approximates it; ≥ and ≤ were set here for values at or beyond the usual limits of such assays; details: source organism: Vibrio parahaemolyticus AQ3810
[21] = target: HLA-A*26:01; assay: as above; details: source organism: Vibrio parahaemolyticus AQ3810
[22] = target: HLA-B*27:03; assay: as above; details: source organism: Vibrio parahaemolyticus AQ3810
[23] = target: HLA-B*15:01; assay: as above; details: source organism: Vibrio parahaemolyticus AQ3810
[24] = target: HLA-A*29:02; assay: IEDB peptide-MHC binding, purified MHC/competitive/fluorescence; filed as Kd, often an IC50 or EC50 that approximates it; ≥ and ≤ were set here for values at or beyond the usual limits of such assays; details: source organism: Homo sapiens
[25] = target: HLA-C*06:02; assay: IEDB peptide-MHC binding, purified MHC/direct/fluorescence; filed as Kd, often an IC50 or EC50 that approximates it; ≥ and ≤ were set here for values at or beyond the usual limits of such assays; details: source organism: Homo sapiens
[26] = target: HLA-C*14:02; assay: as above; details: source organism: Mycobacterium tuberculosis str. Haarlem
[27] = target: HLA-B*15:17; assay: IEDB peptide-MHC binding, purified MHC/competitive/fluorescence; filed as Kd, often an IC50 or EC50 that approximates it; ≥ and ≤ were set here for values at or beyond the usual limits of such assays; details: source organism: Bacillus cereus ATCC 4342
[28] = target: HLA-B*15:01; assay: as above; details: source organism: Bacillus cereus ATCC 4342
[29] = target: HLA-B*46:01; assay: as above; details: source organism: Bacillus cereus ATCC 4342
[30] = source organism: Escherichia coli O139:H28 str. E24377A
[31] = source organism: Giardia lamblia ATCC 50803
[32] = source organism: Yersinia pestis Nepal516
[33] = source organism: Francisella tularensis subsp. tularensis FSC198
[34] = source organism: Bacillus cereus ATCC 4342

Sequence: ITAALAWSL
- pKd [1, 30]: 6.17
- pKd [2, 30]: ≤ 4.70
- pKd [3, 30]: 7.14

Sequence: YDAHHRFIL
- pKd ([4]; source organism: Listeria monocytogenes serotype 4b str. H7858): ≤ 4.70

Sequence: ISKANWMTY
- pKd [5]: ≤ 4.70
- pKd [6, 31]: ≤ 4.70
- pKd [7, 31]: ≤ 4.70
- pKd [8, 31]: ≤ 4.70
- pKd [9, 31]: ≤ 4.70
- pKd [10, 31]: 7.08
- pKd [11, 31]: ≤ 4.70
- pKd [12, 31]: ≤ 4.70
- pKd [13, 31]: ≤ 4.70
- pKd [14, 31]: ≤ 4.70
- pKd [15, 31]: ≤ 4.70
- pKd [16, 31]: ≤ 4.70
- pKd [17, 31]: ≤ 4.70
- pKd [18, 31]: ≤ 4.70
- pKd [19]: ≤ 4.70
- pKd [3, 31]: ≤ 4.70

Sequence: MAYGFFNNI
- pKd [20]: 7.52
- pKd [21]: ≤ 4.70
- pKd [22]: ≤ 4.70
- pKd [23]: ≤ 4.70

Sequence: NYIDKVRFL
- pKd [24]: 6.96
- pKd ([2]; source organism: Homo sapiens): ≤ 4.70
- pKd [25]: 8.40

Sequence: YSSPHLLRY
- pKd [16, 32]: 6.59
- pKd [1, 32]: 8.35
- pKd [2, 32]: 7.99

Sequence: TVIEGLDKL
- pKd [12, 33]: 6.71
- pKd [3, 33]: 7.05

Sequence: AAIAVGVAL
- pKd [26]: ≤ 4.70

Sequence: GLFWGGIWY
- pKd [6, 34]: ≤ 4.70
- pKd [27]: ≤ 4.70
- pKd [7, 34]: ≤ 4.70
- pKd [8, 34]: ≤ 4.70
- pKd [9, 34]: ≤ 4.70
- pKd [10, 34]: ≤ 4.70
- pKd [11, 34]: ≤ 4.70
- pKd [12, 34]: 5.25
- pKd [13, 34]: ≤ 4.70
- pKd [14, 34]: ≤ 4.70
- pKd [28]: ≤ 4.70
- pKd [15, 34]: ≤ 4.70
- pKd [16, 34]: ≤ 4.70
- pKd [29]: ≤ 4.70
- pKd [17, 34]: ≤ 4.70
- pKd [18, 34]: 6.08
- pKd [3, 34]: ≤ 4.70

Sequence: IANTTDHFF
- pKd [5]: ≤ 4.70
- pKd [6, 31]: ≤ 4.70
- pKd [7, 31]: ≤ 4.70
- pKd [8, 31]: ≤ 4.70
- pKd [9, 31]: ≤ 4.70
- pKd [10, 31]: 6.80
- pKd [11, 31]: ≤ 4.70
- pKd [12, 31]: ≤ 4.70
- pKd [13, 31]: ≤ 4.70
- pKd [14, 31]: ≤ 4.70
- pKd [15, 31]: ≤ 4.70
- pKd [16, 31]: ≤ 4.70
- pKd [17, 31]: ≤ 4.70
- pKd [19]: ≤ 4.70
- pKd [3, 31]: ≤ 4.70

Sequence: TMDVYVMIL
- pKd ([11]; source organism: Vibrio cholerae MAK 757): 7.91
- pKd ([4]; source organism: Vibrio cholerae V52): 6.42
